Measured values as given in patent US20130052198A1, “ANTI-INFLAMMATORY FACTORS” (THE GENERAL HOSPITAL CORPORATION, priority 2010, published 2013).
Entries after “also recorded” stand apart in the source; their conditions may differ.

B1: HAPLN1: Hyaluronan and proteoglycan link protein 1; purified, recombinant form (protein, UniProt P10915 16-354, looked up)
Hyaluronan and proteoglycan …: DHLSDNYTLDHDRAIHIQAENGPHLLVEAEQAKVFSHRGGNVTLPCKFYRDPTAFGSGIHKIRIKWTKLTSDYLKEVDVFVSMGYHKKTYGGYQGRVFLKGGSDSDASLVITDLTLEDYGRYKCEVIEGLEDDTVVVALDLQGVVFPYFPRLGRYNLNFHEAQQACLDQDAVIASFDQLYDAWRGGLDWCNAGWLSDGSVQYPITKPREPCGGQNTVPGVRNYGFWDKDKSRYDVFCFTSNFNGRFYYLIHPTKLTYDEAVQACLNDGAQIAKVGQIFAAWKILGYDRCDAGWLADGSVRYPISRPRRRCSPTEAAVRFVGFPDKKHKLYGVYCFRAYN
B2: MFAP5: Microfibrillar-associated protein 5, ECM glycoprotein; recombinant form tested (protein, UniProt Q13361 22-173, looked up)
Microfibrillar-associated …: IPLGVNSQRGDDVTQATPETFTEDPNLVNDPATDETVLAVLADIAPSTDDLASLSEKNTTAECWDEKFTCTRLYSVHRPVKQCIHQLCFTSLRRMYIVNKEICSRLVCKEHEAMKDELCRQMAGLPPRRLRRSNYFRLPPCENVDLQRPNGL

What was measured:
[1] = test system: human leukocytes in culture; experiment: Cytokine production (IL-10 or IFN-γ) in human leukocytes in culture; assay type: cell-based; conditions: concentrations within five orders of magnitude of 10 μg/mL
Procedure: (§1) Leukocytes were prepared from fresh whole human blood, collected and spun in the presence of Ficoll for 30 minutes at 1500×g. The mononuclear cell layer was transferred to a new tube where it was washed once with RPMI 1640. The mononuclear cells were plated at a density of 1×10^5 per well of a 96-well plate in 50 μL of RPMI 1640 per well. MSC-CM was then immediately added to each well and allowed to incubate in the presence of the mononuclear cells for 16 hours. After incubation, 50 μL of RPMI 1640 containing 10 μg/mL of LPS was added to each well and allowed to incubate for an additional 5 hours. The resultant supernatants were collected and analyzed via ELISA for human interleukin-10 (IL-10). This procedure of incubating leukocytes with MSC-CM to determine IL-10 stimulating activity will be henceforth referred to as the “IL-10 assay”.
(§2) Preparations and use of MSC-CM, Fb-CM, LPS-stimulated MSC-CM, leukocytes were as described in Examples 1-3 and the Figures. These conditioned media preparations were added to leukocyte cultures for 16 hours, after which the culture was stimulated with LPS at 10 μg/ml. The medium from this culture was collected 24 hours after LPS stimulation of leukocytes and analyzed using an IFN-γ ELISA.

leukocytes = experiment: IFN-γ production by LPS-stimulated leukocytes, ELISA; assay type: cell-based, human
Procedure: as §1, §2

[2] = test system: colitic mice (TNBS colitis); experiment: TNBS colitis in mice, colon histopathology; assay type: in vivo; conditions: 3 μg protein twice over 24 h; sacrifice at day 2; compared to vehicle (saline)
Procedure: FIG. 6: Administered MFAP5 and LGALS3BP protect mice from developing TNBS colitis. Mice were presensitized via the skin with 1% TNBS one week prior to intra-rectal administration of 3 mg of TNBS per mouse in a mixture of 50% EtOH and 50% sterile water to induce colitis. Mice were treated with 3 μg each of MFAP5, LGALS3BP and GALNT1 twice over a 24 hour period, once in conjunction with the TNBS administration and once 24 hours later. Mice were then sacrificed at day 2 and tissue collected for analysis. As expected, mice treated with vehicle (saline) developed extensive inflammation of the colon with loss of crypts and frank necrosis of the intestinal epithelium.
MFAP5, LGALS3BP and PENK all protected the colonic epithelium from the hallmark features of TNBS colitis: necrosis, inflammatory infiltrate and loss of crypts. Especially at the microscopic level, the tissue of the MFAP5, LGALS3BP and PENK treated animals looked mostly normal with minor foci of inflammation and edema.

[3] = test system: human peripheral blood mononuclear cells (PBMCs); experiment: PBMC potency assay (IL-10 assay): IL-10 secretion by LPS-stimulated PBMCs, ELISA; assay type: cell-based; conditions: recombinant molecules diluted in RPMI 1640
Description: FIG. 1: MSC conditioned medium causes peripheral blood mononuclear cells to secrete IL-10 in response to LPS, providing the basis for differential gene expression analysis to identify genes responsible for the increased activity. (a) Generalized schematic of EPS methodology. Protein products are derived from various cell types in the form of conditioned media and screened for activity in an in vitro potency assay. […] Recombinant protein products of the enriched gene list are then screened in a potency assay and the candidates with the highest activity are assessed for activity in vivo. (b) In vitro potency assay. This assay entails incubating primary human peripheral blood mononuclear cells (PBMCs) in the presence of protein products (e.g., conditioned medium from a cell) for 16 hours, followed by stimulation of the PBMCs with LPS for five hours, and measurement of IL-10 secretion into the supernatant via ELISA. (c) Time course of IL-10 expression from PBMCs when incubated with either bone marrow stromal cell conditioned medium (BMSC-CM) or unconditioned medium (DMEM) in the potency assay. (d) Comparison of potency assay activity of conditioned medium from normal human dermal fibroblasts (FB-CM), BMSCs (BMSC-CM) and BMSCs preincubated with LPS prior to conditioning (BMSCLPS-CM). * p<0.001 compared to FB-CM, ** p<0.001 compared to BMSC-CM. (e) Schematic of the differential gene expression comparison strategy to select for genes uniquely expressed at high levels in LPS stimulated MSCs (MSCLPS) compared to MSCs and fibroblasts (FBs). Analysis was then conducted on the genes identified to select for genes that were most likely to be responsible for secreted proteins. MSCLPS, LPS stimulated MSC; FB, fibroblast. […]
Leukocytes were prepared from fresh whole human blood, collected and spun in the presence of Ficoll for 30 minutes at 1500×g. […] The resultant supernatants were collected and analyzed via ELISA for human interleukin-10 (IL-10). […]

[4] = test system: BALB/cJ mice challenged with a sub-lethal dose of LPS; experiment: In vivo LPS assay, sub-lethal LPS model: serum cytokines and lung histology
Procedure: (§3) FIG. 8: In vivo hit screen and survival study. (a) Schematic of the in vivo LPS assay. Proteins were administered intraperitoneal (IP) at the concentration that elicited the strongest effect in vitro, followed by IP administration of LPS in conjunction with a second dose of the proteins 16 hours later. Two days after the combined LPS and second protein dose, the mice were sacrificed and assessed for changes in serum cytokines and tissue histology. (b) Serum IL-10 levels of BALB/cJ mice subjected to the in vivo LPS assay. * p<0.001 compared to saline. (c) Serum TNF-α levels of BALB/cJ mice subjected to the in vivo LPS assay. * p<0.001 compared to saline, ** p<0.05 compared to BMSC-CM. (d) Representative micrographs of lung tissue from mice subjected to the in vivo LPS assay stained with hematoxylin and eosin. (e) Survival of mice subjected to a lethal dose of LPS i.p. (350 μg) concurrently with i.p. saline vehicle (bold dark blue line), 5 μg Anti-TNF-α antibody (thin dark blue line), 4 μg PENK (bold light blue line) or 4 μg MFAP5 (thin light blue line). Scale bar=200 μm.
All procedures were performed in accordance with the animal rights policies of the Massachusetts General Hospital Subcommittee on Research Animal Care. For the sub-lethal LPS model, eight week old female BALB/cJ mice (n≧3) (Jackson Laboratories, Bar Harbor, Me.) were administered an initial dose of either vehicle or one of the experimental therapies IP: 200 μL of saline (vehicle), or 3 μg of protein (e.g., GALNT1, LGALS3BP, MFAP5 or PENK) diluted in 200 μL of saline, or 1 mL of 1×BMSC-CM. 16 hours later, mice received a second dose of either vehicle or therapy in conjunction with a dose of 100 μg of LPS (E. coli 0111:B4; Sigma, St. Louis, Mo.) diluted in physiological saline. 48 hours later, mice were sacrificed and tissue and blood were collected for analysis. Serum was tested for the presence of IL-10 and TNF-α via ELISA and lungs, livers and kidneys of the animals were preserved for hematoxylin and eosin staining. For the lethal LPS model, eight week old female BALB/cJ mice (n≧5) were co-administered a lethal dose of LPS (350 μg LPS in 100 μL physiological saline) and either vehicle (negative control), 5 μg anti-TNF-α (positive control; R&D Systems, Minneapolis, Minn.), 4 μg MFAP5 diluted in 100 μL of physiological saline, or 4 μg of PENK diluted in 100 μL of physiological saline. Mice were monitored for survival for seven days (168 hours).

[5] = test system: BALB/cJ mice challenged with a lethal dose of LPS; experiment: Lethal LPS model, survival; assay type: in vivo; conditions: 350 μg LPS i.p. with 4 μg protein; monitored seven days
Procedure: as §3
All procedures were performed in accordance with the animal rights policies of the Massachusetts General Hospital Subcommittee on Research Animal Care. […] Mice were monitored for survival for seven days (168 hours).

[6] = 3 μg protein or 1 mL 1×BMSC-CM IP, twice, 100 μg LPS, 48 h later, compared to saline

| Molecule | promote IL-10 production or suppress IFN-γ production [1] | IFN-γ production of leukocytes stimulated with LPS (leukocytes; 16 h incubation, LPS 10 μg/ml, medium collected 24 h after LPS) | dose-dependency of IFN-γ production (leukocytes; HAPLN1 diluted in RPMI 1640) | protection from TNBS colitis (colon histopathology) [2] | increase of IL-10 production compared to 10×MSC-CM [3] | serum IL-10 levels [4, 6] | serum TNF-α [4, 6] | lung histology (lung protection) ([4]; hematoxylin and eosin, sub-lethal LPS model, compared to vehicle) | TNF-α suppression compared to BMSC-CM ([4]; serum, sub-lethal LPS model) | survival [5] |
| --- | --- | --- | --- | --- | --- | --- | --- | --- | --- | --- |
| B1 | either promote IL-10 production or suppress IFN-γ production | independently reduce IFN-γ production | dose-dependency of IFN-γ production over several orders of magnitude | – | – | – | – | – | – | – |
| B2 | either promote IL-10 production or suppress IFN-γ production | – | – | protect the mice from developing acute colitis; also recorded: significant attenuation of colitis; also recorded: protected from developing extensive colonic inflammation | superior to that induced by 10×MSC-CM | Significantly elevated | significantly suppressed | superior lung protection | superior TNF-α suppression | significant survival benefit |
